Biological target: microtubules (pig brain tubulin) (pig, UniProt P02550 1-451; Q767L7 1-444, Cy3 or Cy5 and biotin labels on a fraction of the tubulin | Cy3 or Cy5 and biotin labels on a fraction of the tubulin)
Sequence (P02550 other isoform, or with tags, fused parts or gaps, chain 1 of 2): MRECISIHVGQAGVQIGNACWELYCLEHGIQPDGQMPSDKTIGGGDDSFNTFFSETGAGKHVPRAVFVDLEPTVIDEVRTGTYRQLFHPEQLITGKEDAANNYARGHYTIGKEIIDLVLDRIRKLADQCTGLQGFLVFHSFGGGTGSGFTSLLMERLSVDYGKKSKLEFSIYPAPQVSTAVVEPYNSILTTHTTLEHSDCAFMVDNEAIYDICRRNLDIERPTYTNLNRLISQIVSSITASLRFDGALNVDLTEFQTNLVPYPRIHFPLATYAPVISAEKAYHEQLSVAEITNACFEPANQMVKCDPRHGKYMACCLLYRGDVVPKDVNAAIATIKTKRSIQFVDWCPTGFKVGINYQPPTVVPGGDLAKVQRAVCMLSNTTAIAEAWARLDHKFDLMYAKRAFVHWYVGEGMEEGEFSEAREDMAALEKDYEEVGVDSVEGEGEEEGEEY
Sequence (Q767L7 other isoform, or with tags, fused parts or gaps, chain 2 of 2): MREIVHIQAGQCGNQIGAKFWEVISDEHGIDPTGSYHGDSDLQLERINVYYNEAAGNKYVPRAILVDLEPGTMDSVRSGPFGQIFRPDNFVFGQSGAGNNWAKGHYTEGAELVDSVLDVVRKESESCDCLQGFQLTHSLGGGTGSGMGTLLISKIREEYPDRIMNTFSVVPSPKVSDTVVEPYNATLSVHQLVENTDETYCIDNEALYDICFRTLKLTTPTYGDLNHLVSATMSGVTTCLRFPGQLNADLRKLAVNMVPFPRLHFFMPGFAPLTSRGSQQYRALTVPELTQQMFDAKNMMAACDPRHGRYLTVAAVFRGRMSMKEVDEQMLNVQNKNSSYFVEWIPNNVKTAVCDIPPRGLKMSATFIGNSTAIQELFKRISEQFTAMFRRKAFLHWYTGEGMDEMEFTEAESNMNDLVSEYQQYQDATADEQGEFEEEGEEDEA

B1: NuMA Bonsai (other)
chain: MTLHATRGAALLSWVNSLHVADPVEAVLQLQDCSIFIKIIDRIHGTEEGQQILKQPVSERLDFVCSFLQKNRKHPSSPECLVSAQKVLEGSELELAKMTMLLLYHSTMSSKSPRDWEQFEYKIQAELAVILKFVLDHEDGLNLNEDLENFLQKAPVPSTCSSTFPEELSPPSHQAKREIRFLELQKVASSSSGNNFLSGSPASPMGDILQTPQFQMRRLKKQLADERSNRDELELELAENRKLLTEKDAQIAMMQQRIDRLALLNEKQAASPLEPKELEELRDKNESLTMRLHETLKQCQDLKTEKSQMDRKINQLSEENGDLSFKLREFASHLQQLQDALNELTEEHSKATQEWLEKQAQLEKELSAALQDKKCLEEKNEILQGKLSQLEEHLSQLQDNPPQEKGEVLGDVLQLETLKQEAATLAANNTQLQARVEMLETERGQQEAKLLAERGHFEEEKQQLSSLITDLQSSISNLSQAKEELEQASQAHGARLTAQVASLTSELTTLNATIQQQDQELAGLKQQAKEKQAQLAQTLQQQEQASQGLRHQVEQLSSSLKQKEQQLKEVAEKQEATRQDHAQQLATAAEEREASLRERDAALKQLEALEKEKAAKLEILQQQLQVANEARDSAQTSVTQAQREKAELSRKVEELQACVETARQEQHEAQAQVAELELQLRSEQQKATEKERVAQEKDQLQEQLQFQVATDALKSREPQAKPQLDLSIDSLDLSCEEGTPLSITSKLPRTQPDGTSVPGEPASPISQRLPPKVESLESLYFTPIPARSQAPLESSLDSLGDVFLDSGRKTRSARRRTTQIINITMTKKLDVEEPDSANSSFYSTRSAPASQASLRATSSTQSLARLGSPDYGNSALLSLPGYRPTTRSSARRSQAGVSSGAPPGRNSFYMGTCQDEPEQLDDWNRIAELQQRNRVCPPHLKTCYPLESRPSLSLGTITDEEMKTGDPQETLRRASMQPIQIAEGTGITTRQQRKRVSLEPHQGPGTPESKKATSCFPRPMTPRDRHEGRKQSTTEAQKKAAPASTKQADRRQSMAFSILNTPKKLGNSLLRRGASKKALSKASPNTRSGTRRSPRIATTTASAATAAAIGATPRAKGKAKH
Work on B1 yielded a Kd of 279 nM.

— paper doi:10.1101/2024.11.26.625568 (2024)
